Here are results for 1 molecule from PMC9649601 (2022).

For orientation: Kd means the free concentration of one partner at which half of the binding sites on the other are occupied at equilibrium, for simple one-to-one binding.

This test deals with ubiquitin conjugating enzyme E2 I (UBE2I), recombinant (UniProt P63279 1-158). Briefly: ITC. On the technique in general: Isothermal titration calorimetry measures the heat released or taken up as one component is titrated into another.
Chain of ubiquitin conjugating enzyme E2 I (UBE2I), recombinant (P63279 whole entry): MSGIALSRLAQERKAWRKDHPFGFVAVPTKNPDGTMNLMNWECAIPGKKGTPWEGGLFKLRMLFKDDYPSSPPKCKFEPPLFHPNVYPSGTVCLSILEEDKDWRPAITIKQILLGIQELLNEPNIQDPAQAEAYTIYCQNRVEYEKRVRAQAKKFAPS

B1: lamin A (LMNA), wild type, recombinant (natural protein)
chain: METPSQRRATRSGAQASSTPLSPTRITRLQEKEDLQELNDRLAVYIDRVRSLETENAGLRLRITESEEVVSREVSGIKAAYEAELGDARKTLDSVAKERARLQLELSKVREEFKELKARNTKKEGDLIAAQARLKDLEALLNSKEAALSTALSEKRTLEGELHDLRGQVAKLEAALGEAKKQLQDEMLRRVDAENRLQTMKEELDFQKNIYSEELRETKRRHETRLVEIDNGKQREFESRLADALQELRAQHEDQVEQYKKELEKTYSAKLDNARQSAERNSNLVGAAHEELQQSRIRIDSLSAQLSQLQKQLAAKEAKLRDLEDSLARERDTSRRLLAEKEREMAEMRARMQQQLDEYQELLDIKLALDMEIHAYRKLLEGEEERLRLSPSPTSQRSRGRASSHSSQTQGGGSVTKKRKLESTESRSSFSQHARTSGRVAVEEVDEEGKFVRLRNKSNEDQSMGNWQIKRQNGDDPLLTYRFPPKFTLKAGQVVTIWAAGAGATHSPPTDLVWKAQNTWGCGNSLRTALINSTGEEVAMRKLVRSVTVVEDDEDEDGDDLLHHHHGSHCSSSGDPAEYNLRSRTVLCGTCGQPADKASASGSGAQVGGPISSGSSASSVTVTRSYRSVGGSGGGSFGDNLVTRSY
As to B1, the Kd turned out to be 373 nM.
